The results in this text go back to patent US20020035246, “SMAD-interacting polypeptides and their use” (published 2002).

This data set addresses T1, SIP1CZF (C-terminal zinc finger cluster of SIP1) (Mus musculus, UniProt Q9R0G7 SEQ:728-805).
T1 sequence: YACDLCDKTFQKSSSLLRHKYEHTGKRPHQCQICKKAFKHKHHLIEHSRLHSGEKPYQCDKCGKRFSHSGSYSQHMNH
The data set is described as follows: EMSA; competed by excess unlabeled self. The settings on record: tags: GST fusion, E. coli; label: 32P.

B1: Brachyury binding site (dsDNA)
DNA 1: TGACACCTAGGTGTGAATT
DNA 2: AATTCACACCTAGGTGTCA
For B1, the binding result is given as “binds”.
